Blank lines part the entries; values can stand above or below the binder they belong to.
Tests used:
4H3625-AA = molecular target: T1, 4H3625-AA; assay: two-hybrid library CCmax; details: mean of both orientations;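 further: natural log of median RNA to DNA barcode read ratio; higher means stronger binding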
T1 chain: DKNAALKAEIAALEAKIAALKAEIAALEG

4H2187-AA = molecular target: T2, 4H2187-AA; assay: two-hybrid library CCmax; details: mean of both orientations;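 further: natural log of median RNA to DNA barcode read ratio; higher means stronger binding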
T2 chain: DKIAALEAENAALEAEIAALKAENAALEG

4H3409-AA = molecular target: T3, 4H3409-AA; assay: two-hybrid library CCmax; details: mean of both orientations;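 further: natural log of median RNA to DNA barcode read ratio; higher means stronger binding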
T3 chain: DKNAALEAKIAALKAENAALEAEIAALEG

4H510-AA = molecular target: T4, 4H510-AA; assay: two-hybrid library CCmax; details: mean of both orientations;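 further: natural log of median RNA to DNA barcode read ratio; higher means stronger binding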
T4 chain: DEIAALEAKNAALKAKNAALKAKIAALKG

4H87-AA = molecular target: T5, 4H87-AA; assay: two-hybrid library CCmax; details: mean of both orientations
T5 chain: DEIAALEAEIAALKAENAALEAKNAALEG

4H2687-AA = molecular target: T6, 4H2687-AA; assay: two-hybrid library CCmax; details: mean of both orientations
T6 chain: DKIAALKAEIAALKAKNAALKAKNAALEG

4H390-AA = molecular target: T7, 4H390-AA; assay: two-hybrid library CCmax; details: mean of both orientations
T7 chain: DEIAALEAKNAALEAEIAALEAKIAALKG

4H2705-AA = molecular target: T8, 4H2705-AA; assay: two-hybrid library CCmax; details: mean of both orientations
T8 chain: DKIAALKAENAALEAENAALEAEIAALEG

4H3134-AA = molecular target: T9, 4H3134-AA; assay: two-hybrid library CCmax; details: mean of both orientations
T9 chain: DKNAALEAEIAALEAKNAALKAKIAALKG

4H233-AA = molecular target: T10, 4H233-AA; assay: two-hybrid library CCmax; details: mean of both orientations
T10 chain: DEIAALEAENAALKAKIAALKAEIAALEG

4H3940-AA = molecular target: T11, 4H3940-AA; assay: two-hybrid library CCmax; details: mean of both orientations
T11 chain: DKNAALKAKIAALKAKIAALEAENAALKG

4H2758-AA = molecular target: T12, 4H2758-AA; assay: two-hybrid library CCmax; details: mean of both orientations
T12 chain: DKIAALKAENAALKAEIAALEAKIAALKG

4H2512-AA = molecular target: T13, 4H2512-AA; assay: two-hybrid library CCmax; details: mean of both orientations
T13 chain: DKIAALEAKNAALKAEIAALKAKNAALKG

4H2985-AA = molecular target: T14, 4H2985-AA; assay: two-hybrid library CCmax; details: mean of both orientations
T14 chain: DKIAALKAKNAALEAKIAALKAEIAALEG

4H816-AA = molecular target: T15, 4H816-AA; assay: two-hybrid library CCmax; details: mean of both orientations
T15 chain: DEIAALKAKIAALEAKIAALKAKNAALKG

4H1710-AA = molecular target: T16, 4H1710-AA; assay: two-hybrid library CCmax; details: mean of both orientations
T16 chain: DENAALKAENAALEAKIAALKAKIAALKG

4H2873-AA = molecular target: T17, 4H2873-AA; assay: two-hybrid library CCmax; details: mean of both orientations
T17 chain: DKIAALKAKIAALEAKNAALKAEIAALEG

4H1985-AA = molecular target: T18, 4H1985-AA; assay: two-hybrid library CCmax; details: mean of both orientations
T18 chain: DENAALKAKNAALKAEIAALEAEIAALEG

4H278-AA = molecular target: T19, 4H278-AA; assay: two-hybrid library CCmax; details: mean of both orientations
T19 chain: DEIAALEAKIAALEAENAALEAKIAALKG

4H2646-AA = molecular target: T20, 4H2646-AA; assay: two-hybrid library CCmax; details: mean of both orientations
T20 chain: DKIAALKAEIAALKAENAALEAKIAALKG

4H1350-AA = molecular target: T21, 4H1350-AA; assay: two-hybrid library CCmax; details: mean of both orientations
T21 chain: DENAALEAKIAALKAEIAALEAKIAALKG

4H775-AA = molecular target: T22, 4H775-AA; assay: two-hybrid library CCmax; details: mean of both orientations
T22 chain: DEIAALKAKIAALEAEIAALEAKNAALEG

4H121-AA = molecular target: T23, 4H121-AA; assay: two-hybrid library CCmax
T23 chain: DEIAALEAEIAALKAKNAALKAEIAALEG

P4SH = molecular target: T24, P4SH; assay: two-hybrid library CCNG1
T24 chain: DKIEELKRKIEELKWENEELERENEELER

P5SH = molecular target: T25, P5SH; assay: two-hybrid library CCNG1
T25 chain: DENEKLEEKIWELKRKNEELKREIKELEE

P8SH = molecular target: T26, P8SH; assay: two-hybrid library CCNG1
T26 chain: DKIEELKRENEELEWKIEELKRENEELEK

P6SH = molecular target: T27, P6SH; assay: two-hybrid library CCNG1
T27 chain: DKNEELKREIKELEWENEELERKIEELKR

P7SH = molecular target: T28, P7SH; assay: two-hybrid library CCNG1
T28 chain: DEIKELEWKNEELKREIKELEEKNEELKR

4H2944-bH = molecular target: T29, 4H2944-bH; assay: two-hybrid library CCNG1
T29 chain: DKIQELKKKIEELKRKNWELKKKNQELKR

4H2696-bH = molecular target: T30, 4H2696-bH; assay: two-hybrid library CCNG1
T30 chain: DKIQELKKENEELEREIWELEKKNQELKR

4H342-bH = molecular target: T31, 4H342-bH; assay: two-hybrid library CCNG1
T31 chain: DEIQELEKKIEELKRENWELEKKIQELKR

4H48-bH = molecular target: T32, 4H48-bH; assay: two-hybrid library CCNG1
T32 chain: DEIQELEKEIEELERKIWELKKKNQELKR

4H491-bH = molecular target: T33, 4H491-bH; assay: two-hybrid library CCNG1
T33 chain: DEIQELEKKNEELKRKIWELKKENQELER

4H2883-bH = molecular target: T34, 4H2883-bH; assay: two-hybrid library CCNG1
T34 chain: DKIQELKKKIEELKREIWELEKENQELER

4H2937-bH = molecular target: T35, 4H2937-bH; assay: two-hybrid library CCNG1
T35 chain: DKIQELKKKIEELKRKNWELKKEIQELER

interaction score (4H3625-AA): -0.876 | interaction score (4H2187-AA): -0.0331 | interaction score (4H3409-AA): 0.672 | interaction score (4H510-AA): -1.47 | interaction score (4H87-AA): 0.81 | interaction score (4H2687-AA): -0.303 | interaction score (4H390-AA): 1.2 | interaction score (4H2705-AA): 0.603 | interaction score (4H3134-AA): 0.777 | interaction score (4H233-AA): -0.289 | interaction score (4H3940-AA): -0.784 | interaction score (4H2758-AA): 0.775 | interaction score (4H2512-AA): -1.66 | interaction score (4H2985-AA): 0.209 | interaction score (4H816-AA): -0.458 | interaction score (4H1710-AA): 0.228 | interaction score (4H2873-AA): 0.239 | interaction score (4H1985-AA): -1.39 | interaction score (4H278-AA): 2.13 | interaction score (4H2646-AA): 2.21 | interaction score (4H1350-AA): 0.484 | interaction score (4H775-AA): -0.904 | interaction score (4H121-AA): 0.829
B1: 4H121-AA (peptide)
chain: DEIAALEAEIAALKAKNAALKAEIAALEG

interaction score (P4SH): -0.1 | interaction score (P5SH): -0.643 | interaction score (P8SH): -0.776 | interaction score (P6SH): -0.892 | interaction score (P7SH): -1.17
B2: P4SH (peptide)
chain: DKIEELKRKIEELKWENEELERENEELER

interaction score (4H2944-bH): -0.0809 | interaction score (4H2696-bH): 0.576 | interaction score (4H342-bH): 0.972 | interaction score (4H48-bH): 1.04 | interaction score (4H491-bH): 1.73 | interaction score (4H2883-bH): 1.5 | interaction score (4H2937-bH): 1.47
B3: 4H2696-bH (peptide)
chain: DKIQELKKENEELEREIWELEKKNQELKR
